Assay results: patent US20110092419A1

What follows are substances tested against purified recombinant human insulin receptor (either with or without exon 11) (human) (UniProt P06213) (assay: SPA competition with A14Tyr[125I]-human insulin on purified recombinant human insulin receptor).

Substance | Relative insulin receptor binding affinity (%) (% of the affinity of human insulin)
A8H, A14E, A22K, B25H, B29R, desB30 human insulin (from UniProt P01308 90-110; P01308 25-53) (ligand) | 67.1
A8H, A14E, B10E, B25H, B26G, B27G,B28G, desB30 human insulin (from UniProt P01308 90-110; P01308 25-53) (ligand) | 136
A8H, A14E, B16H, B25H, desB30 human insulin (from UniProt P01308 90-110; P01308 25-53) (ligand) | 24
A8H, A14E, B22K, B25H, B29R, desB30 human insulin (from UniProt P01308 90-110; P01308 25-53) (ligand) | 81.1
A8H, A14H, B16H, B25H, desB30 human insulin (from UniProt P01308 90-110; P01308 25-53) (ligand) | 27
A14E, A15E, B25H, desB30 human insulin (from UniProt P01308 90-110; P01308 25-53) (ligand) | 23
A14E, A21G, B25H, desB30 human insulin (from UniProt P01308 90-110; P01308 25-53) (ligand) | 13.1
A14E, A22K, B16E, B25H, B29R, desB30 human insulin (from UniProt P01308 90-110; P01308 25-53) (ligand) | 0.9
A14E, A22K, B16H, B25H, B29R, desB30 human insulin (from UniProt P01308 90-110; P01308 25-53) (ligand) | 7.61
A14E, A22K, B25H, B26G, B27G, B28G, B29R, desB30 human insulin (from UniProt P01308 90-110; P01308 25-53) (ligand) | 59.2
A14E, A22K, B25H, B27E, B29R, desB30 human insulin (from UniProt P01308 90-110; P01308 25-53) (ligand) | 24.6
A14E, B10E, B25H, B26G, B27G, B28G, desB30 human insulin (from UniProt P01308 90-110; P01308 25-53) (ligand) | 144
A14E, B16E, B22K, B25H, B29R, desB30 human insulin (from UniProt P01308 90-110; P01308 25-53) (ligand) | 0.59
A14E, B16H, B22K, B25H, B29R, desB30 human insulin (from UniProt P01308 90-110; P01308 25-53) (ligand) | 4.61
A14E, B16H, B25H, desB27, desB28, desB29, desB30 human insulin (from UniProt P01308 90-110; P01308 25-50) (ligand) | 1.9
A14E, B22K, B25H, B26G, B27G, B28G, B29R, desB30 human insulin (from UniProt P01308 90-110; P01308 25-53) (ligand) | 60.7
A14E, B25H, B26E, B27E, desB30 human insulin (from UniProt P01308 90-110; P01308 25-53) (ligand) | 16.5
A14E, B25H, B26G, B27E, B28G, desB30 human insulin (from UniProt P01308 90-110; P01308 25-53) (ligand) | 22.7
A14E, B25H, B26G, B27G, B28K, desB30 human insulin (from UniProt P01308 90-110; P01308 25-53) (ligand) | 69.5
A14E, B25H, B27G, B28G, desB30 human insulin (from UniProt P01308 90-110; P01308 25-53) (ligand) | 16.5
A14E, B25H, B28G, desB30 human insulin (from UniProt P01308 90-110; P01308 25-53) (ligand) | 18.4
A14E, B25H, B29R, desB30 human insulin (from UniProt P01308 90-110; P01308 25-53) (ligand) | 26.1
A14E, B27K, desB28, desB29, desB30 human insulin (from UniProt P01308 90-110; P01308 25-51) (ligand) | 79
A14H, B16H, B25H, desB27, desB28, desB29, desB30 Human insulin (from UniProt P01308 90-110; P01308 25-50) (ligand) | 2
A14K, B25H, B29R human insulin (from UniProt P01308 90-110; P01308 25-54) (ligand) | 11
A14P, B25H, desB30 human insulin (from UniProt P01308 90-110; P01308 25-53) (ligand) | 14
